This is an account of results in patent US20220089722A1 (published 2022).

Assay [1] deals with T1, hEGFR-6-his (SinoBiological) (human, UniProt P00533 25-645). Briefly: ELISA; printed value although curve is flat.
Assay [2] deals with T1, hEGFR-6-his (SinoBiological). Briefly: ELISA. (In general: In an ELISA, binding on a coated surface is turned into a signal by an enzyme label.)

Substitutions are numbered along the chain they refer to.

B1: IgFD-7(anti-CD19/CD3) (bispecific antibody)
chain 1: EVQLVESGGGLVQPGGSLRLSCAASGFTFNTYAMNWVRQAPGKGLEWVARIRSKYNNYATYYADSVKDRFTISRDDSKNTLYLQMNSLRAEDTAVYYCVRHGNFGNSYVSWFAYWGQGTLVTVSSASTKGPSVFPLAPSSKSTSGGTAALGCLVKDYFPEPVTVSWNSGALTSGVHTFPAVLQSSGLYSLSSVVTVPSSSLGTQTYICNVNHKPSNTKVDKKVEPKSCDKTHTCPPCPAPPVAGPSVFLFPPKPKDTLMISRTPEVTCVVVDVSHEDPEVKFNWYVDGVEVHNAKTKPREEQYNSTYRVVSVLTVLHQDWLNGKEYKCKVSNKGLPSSIEKTISKAKGQPREPQVYTLPPSRDELTKNQVSLTCLVKGFYPSDIAVEWESNGQPENNYKTTPPVLDSDGSFFLYSKLTVDKSRWQQGNVFSCSVMHEALHNHYTQKSLSLSPGK
chain 2: QAVVTQEPSLTVSPGGTVTLTCRSSTGAVTTSNYANWVQQKPDHLFRGLIGGTNKRAPGTPARFSGSLLGDKAALTISGAQPEDEAEYYCALWYSNLWVFGGGTKLTVLKRTVAAPSVFIFPPSDEQLKSGTASVVCLLNNFYPREAKVQWKVDNALQSGNSQESVTEQDSKDSTYSLSSTLTLSKADYEKHKVYACEVTHQGLSSPVTKSFNRGECDKTHTCPPCPAPPVAGPSVFLFPPKPKDTLMISRTPEVTCVVVDVSHEDPEVKFNWYVDGVEVHNAKTKPREEQYNSTYRVVSVLTVLHQDWLNGKEYKCKVSNKGLPSSIEKTISKAKGQPREPQVYTLPPSRDELTKNQVSLTCLVKGFYPSDIAVEWESNGQPENNYKTTPPVLDSDGSFFLYSKLTVDKSRWQQGNVFSCSVMHEALHNHYTQKSLSLSPGKSGGGGSGGGGSGGGGSDIQMTQTTSSLSASLGDRVTISCRASQDISKYLNWYQQKPDGTVKLLIYHTSRLHSGVPSRFSGSGSGTDYSLTISNLEQEDIATYFCQQGNTLPYTFGGGTKLEITGGGGSGGGGSGGGGSEVKLQESGPGLVAPSQSLSVTCTVSGVSLPDYGVSWIRQPPRKGLEWLGVIWGSETTYYNSALKSRLTIIKDNSKSQVFLKMNSLQTDDTAIYYCAKHYYYGGSYAMDYWGQGTSVTVSS
By Kd is commonly meant the free concentration of one partner at which half of the binding sites on the other are occupied at equilibrium, for simple one-to-one binding. Higher therefore signals weaker binding. In assay [1], B1 yielded a Kd of 0.161 nM.

B2: IgFD-25(anti-CD3/EGFR) (bispecific antibody)
chain 1: B1 chain 1 with S361C, T373W
chain 2: QAVVTQEPSLTVSPGGTVTLTCRSSTGAVTTSNYANWVQQKPDHLFRGLIGGTNKRAPGTPARFSGSLLGDKAALTISGAQPEDEAEYYCALWYSNLWVFGGGTKLTVLKRTVAAPSVFIFPPSDEQLKSGTASVVCLLNNFYPREAKVQWKVDNALQSGNSQESVTEQDSKDSTYSLSSTLTLSKADYEKHKVYACEVTHQGLSSPVTKSFNRGECDKTHTCPPCPAPPVAGPSVFLFPPKPKDTLMISRTPEVTCVVVDVSHEDPEVKFNWYVDGVEVHNAKTKPREEQYNSTYRVVSVLTVLHQDWLNGKEYKCKVSNKGLPSSIEKTISKAKGQPREPQVCTLPPSRDELTKNQVSLSCAVKGFYPSDIAVEWESNGQPENNYKTTPPVLDSDGSFFLVSKLTVDKSRWQQGNVFSCSVMHEALHNHYTQKSLSLSPGKGGSGGSGGGGSGGGGSDIQMTQSPSSLSASVGDRVTITCQASQDISNYLNWYQQKPGKAPKLLIYDASNLETGVPSRFSGSGSGTDFTFTISSLQPEDIATYFCQHFDHLPLAFGGGTKVEIKGGGGSGGGGSGGGGSQVQLQESGPGLVKPSETLSLTCTVSGGSVSSGDYYWTWIRQSPGKGLEWIGHIYYSGNTNYNPSLKSRLTISIDTSKTQFSLKLSSVTAADTAIYYCVRDRVTGAFDIWGQGTMVTVSS
B2 had a Kd in assay [2] of 0.15 nM.

B3: IgFD-31(anti-CD3/EGFR) (bispecific antibody)
chain 1: EVQLVESGGGLVQPGGSLRLSCAASGFTFNTYAMNWVRQAPGKGLEWVARIRSKYNNYATYYADSVKDRFTISRDDSKNTLYLQMNSLRAEDTAVYYCVRHGNFGNSYVSWFAYWGQGTLVTVSSASTKGPSVFPLAPSSKSTSGGTAALGCLVKDYFPEPVTVSWNSGALTSGVHTFPAVLQSSGLYSLSSVVTVPSSSLGTQTYICNVNHKPSNTKVDKKVEPKSCGGSGAKLAALKAKLAALKGGGGSDKTHTCPPCPAPPVAGPSVFLFPPKPKDTLMISRTPEVTCVVVDVSHEDPEVKFNWYVDGVEVHNAKTKPREEQYNSTYRVVSVLTVLHQDWLNGKEYKCKVSNKGLPSSIEKTISKAKGQPREPQVYTLPPSRDELTKNQVSLTCLVKGFYPSDIAVEWESNGQPENNYKTTPPVLDSDGSFFLYSKLTVDKSRWQQGNVFSCSVMHEALHNHYTQKSLSLSPGK
chain 2: QAVVTQEPSLTVSPGGTVTLTCRSSTGAVTTSNYANWVQQKPDHLFRGLIGGTNKRAPGTPARFSGSLLGDKAALTISGAQPEDEAEYYCALWYSNLWVFGGGTKLTVLKRTVAAPSVFIFPPSDEQLKSGTASVVCLLNNFYPREAKVQWKVDNALQSGNSQESVTEQDSKDSTYSLSSTLTLSKADYEKHKVYACEVTHQGLSSPVTKSFNRGECGGGGSELAALEAELAALEAGGSGDKTHTCPPCPAPPVAGPSVFLFPPKPKDTLMISRTPEVTCVVVDVSHEDPEVKFNWYVDGVEVHNAKTKPREEQYNSTYRVVSVLTVLHQDWLNGKEYKCKVSNKGLPSSIEKTISKAKGQPREPQVYTLPPSRDELTKNQVSLTCLVKGFYPSDIAVEWESNGQPENNYKTTPPVLDSDGSFFLYSKLTVDKSRWQQGNVFSCSVMHEALHNHYTQKSLSLSPGKGGSGGSGGGGSGGGGSDIQMTQSPSSLSASVGDRVTITCQASQDISNYLNWYQQKPGKAPKLLIYDASNLETGVPSRFSGSGSGTDFTFTISSLQPEDIATYFCQHFDHLPLAFGGGTKVEIKGGGGSGGGGSGGGGSQVQLQESGPGLVKPSETLSLTCTVSGGSVSSGDYYWTWIRQSPGKGLEWIGHIYYSGNTNYNPSLKSRLTISIDTSKTQFSLKLSSVTAADTAIYYCVRDRVTGAFDIWGQGTMVTVSS
Molecule B3 came in with a Kd in assay [2] of 0.161 nM.

B4: IgFD-26(anti-CD3/EGFR) (bispecific antibody)
chain 1: not shown
chain 2: QAVVTQEPSLTVSPGGTVTLTCRSSTGAVTTSNYANWVQQKPDHLFRGLIGGTNKRAPGTPARFSGSLLGDKAALTISGAQPEDEAEYYCALWYSNLWVFGGGTKLTVLKRTVAAPSVFIFPPSDEQLKSGTASVVCLLNNFYPREAKVQWKVDNALQSGNSQESVTEQDSKDSTYSLSSTLTLSKADYEKHKVYACEVTHQGLSSPVTKSFNRGECDKTHTCPPCPAPELLGGPSVFLFPPKPKDTLMISRTPEVTCVVVDVSHEDPEVKFNWYVDGVEVHNAKTKPREEQYASTYRVVSVLTVLHQDWLNGKEYKCKVSNKALPAPIEKTISKAKGQPREPQVCTLPPSREEMTKNQVSLSCAVKGFYPSDIAVEWESNGQPENNYKTTPPVLDSDGSFFLVSKLTVDKSRWQQGNVFSCSVMHEALHNHYTQKSLSLSPGKGGSGGSGGGGSGGGGSDIQMTQSPSSLSASVGDRVTITCQASQDISNYLNWYQQKPGKAPKLLIYDASNLETGVPSRFSGSGSGTDFTFTISSLQPEDIATYFCQHFDHLPLAFGGGTKVEIKGGGGSGGGGSGGGGSQVQLQESGPGLVKPSETLSLTCTVSGGSVSSGDYYWTWIRQSPGKGLEWIGHIYYSGNTNYNPSLKSRLTISIDTSKTQFSLKLSSVTAADTAIYYCVRDRVTGAFDIWGQGTMVTVSS
B4: in assay [2], binding was characterised by a dissociation constant (Kd) of 0.139 nM.
